In the supplement of paper PMC10567573:

B1: TCAP (parent)
chain: YQRVLPLPIFTPAKMGATKEERED
B2: DCAF4 (parent)
chain: DSHILLCLMGLAETPGCATLLPAS

Variants of: B1
Test: protein stability index of a GFP-peptide fusion (GPS, HEK-293T) (PSI 1-6); higher = more stable
Settings: c terminus: a fixed tail appended
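Also: lentivirally expressed fusions sorted by FACS into six bins by GFP to DsRed ratio, PSI derived from sequencing read proportions per bin multiplied by bin number.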

Protein stability index of substitutions, site by site:
P8: K 2.18 | L 1.64 | M 2.36 | N 2.11 | Q 2.12 | R 1.88 | T 2.32 | V 2 | W 2.73 | Y 2.51
I9: A 3.96 | C 3.04 | D 3.63 | E 4.51 | F 2.31 | G 3.79 | H 2.83 | K 3.96 | L 2.41 | M 3.07 | N 4.47 | P 4.02 | Q 3.74 | R 4.16 | S 3.79 | T 4.02 | V 2.88 | W 2.2 | Y 2.58
F10: A 4.3 | C 3.63 | D 4.32 | E 4.33 | G 4.44 | H 3.94 | I 3.72 | K 4.08 | L 3.73 | M 3.71 | N 4.05 | P 4.14 | Q 4.5 | R 4.18 | S 4.06 | T 4.04 | V 3.65 | Y 2.48
T11: A 1.87 | C 1.79 | D 3.96 | E 2.52 | F 2.25 | G 3.12 | H 3.49 | I 2.68 | K 3.63 | L 2.71 | M 2.08 | N 3.49 | P 3.31 | Q 3.44 | R 3.21 | S 2.36 | V 2.67 | W 2.25 | Y 2.62
P12: A 3.44 | C 2.16 | D 2.92 | E 3.02 | F 2.98 | G 3.11 | H 3.12 | I 3.48 | K 3.2 | L 2.64 | M 2.91 | N 2.82 | Q 3.84 | R 3.47 | S 3.2 | T 3.26 | V 3.07 | W 1.94 | Y 2.74
A13: C 1.72 | D 2.95 | E 2.9 | F 2.04 | G 2.38 | H 1.69 | I 2.18 | K 2.44 | L 1.76 | M 2.31 | N 1.67 | P 3.8 | Q 1.95 | R 2.44 | S 2.53 | T 2.64 | V 2.2 | W 2.02 | Y 1.86
K14: A 1.64 | C 1.69 | D 3.13 | E 2.63 | F 2.04 | G 2.65 | H 2.18 | I 1.61 | L 1.81 | M 1.77 | N 2.32 | P 2.62 | Q 2.32 | R 2.21 | S 2.46 | T 1.99 | V 2.78 | W 1.59 | Y 1.97
M15: A 2.38 | C 2.12 | D 2.23 | E 2.64 | F 2.14 | G 2.31 | H 2.57 | I 2.1 | K 2.38 | L 2.42 | N 2.38 | P 2.69 | Q 2.26 | R 2.21 | S 2.92 | T 2.05 | V 2.39 | W 1.72 | Y 2.21
G16: A 1.9 | C 2.06 | D 1.92 | E 2.16 | F 2.14 | H 1.34 | I 1.92 | K 1.7 | L 1.81 | M 1.56 | N 1.67 | P 1.96 | Q 2.24 | R 2.05 | S 2.16 | T 1.95 | V 2.39 | W 1.8 | Y 2.07
A17: C 2.24 | D 2.1 | E 2.07 | F 1.74 | G 1.72 | H 2.06 | I 1.84 | K 2.21 | L 1.67 | M 2.38 | N 2.08 | P 1.97 | Q 1.86 | R 2.05 | S 2.02 | T 1.78 | V 1.76 | W 2.11 | Y 1.89
T18: A 1.79 | C 2.12 | D 2.25 | E 3.02 | F 1.76 | G 1.96 | H 1.95 | I 1.81 | K 2.25 | L 2.56 | M 1.52 | N 2.06 | P 1.91 | Q 2.39 | R 2.4 | S 1.81 | V 2.38 | Y 1.7
K19: A 2.02 | C 1.78 | D 2.03 | E 2.09 | F 1.93 | G 2.42 | H 1.8 | I 2.06 | L 1.8 | M 2.5 | N 2.1 | P 2.21 | Q 1.91 | R 2.02 | S 2.08 | T 2.12 | V 1.63 | W 1.81 | Y 2.01
E20: A 1.94 | C 1.87 | D 2.02 | F 1.72 | G 2.23 | H 2.78 | I 2.04 | K 1.81 | L 2.13 | M 2.4 | N 1.89 | P 1.92 | Q 1.73 | R 2.48 | S 2.11 | T 2.13 | V 1.65 | W 2.2 | Y 2.67
E21: A 1.91 | C 2.28 | D 2 | F 1.95 | G 1.75 | H 2.22 | I 2.2 | K 2.1 | L 2.06 | M 1.93 | N 1.81 | P 2.54 | Q 1.98 | R 1.97 | S 1.91 | T 1.92 | V 2.35 | W 2.41 | Y 2.14
R22: A 1.9 | C 2.04 | D 2.18 | E 2.34 | F 1.85 | G 2.47 | H 1.95 | I 1.93 | K 2.09 | L 1.79 | M 1.9 | N 2.51 | P 1.87 | Q 1.67 | S 1.76 | T 1.86 | V 2.2 | W 1.71 | Y 1.63
E23: A 2.02 | C 2.19 | D 2.04 | F 1.64 | G 2 | H 2.72 | I 2.3 | K 1.87 | L 2.22 | M 1.9 | N 1.8 | P 1.95 | Q 1.69 | R 1.92 | S 2 | T 2.16 | V 2.79 | W 2.53 | Y 1.93
D24: A 1.82 | C 1.98 | E 2.21 | F 1.75 | G 1.84 | H 1.81 | I 1.99 | K 2.17 | L 2.04 | M 1.86 | N 2.22 | P 1.85 | Q 2.03 | R 1.55 | S 1.45 | T 3.05 | V 1.87 | W 2.26 | Y 1.76

Variants of: B2
Test: as above
Settings: c terminus: a fixed tail appended

Protein stability index: each site, then its substitutions
D1: A 2.99 | C 3.49 | E 2.55 | G 3.42 | H 2.19 | I 2.64 | K 2.07 | L 3.08 | M 2.4 | Q 2.87 | R 4.01 | S 3.75 | T 2.58 | V 3.42 | W 3.42 | Y 1.7
S2: A 3.22 | D 2.64 | E 2.48 | F 3.1 | G 3.25 | H 1.36
